Assay results reported in the PETadex activity labels (doi:10.1126/science.aad6359).

B1: unnamed (protein)
chain: MQTTVTTMLLASVALAACAGGGSTPLPLPQQQPPQQEPPPPPVPLASRAACEALKDGNGDMVWPNAATVVEVAAWRDAAPATASAAALPEHCEVSGAIAKRTGIDGYPYEIKFRLRMPAEWNGRFFMEGGSGTNGSLSAATGSIGGGQIASALSRNFATIATDGGHDNAVNDNPDALGTVAFGLDPQARLDMGYNSYDQVTQAGKAAVARFYGRAADKSYFIGCSEGGREGMMLSQRFPSHYDGIVAGAPGYQLPKAGISGAWTTQSLAPAAVGLDAQGVPLINKSFSDADLHLLSQAILGTCDALDGLADGIVDNYRACQAAFDPATAANPANGQALQCVGAKTADCLSPVQVTAIKRAMAGPVNSAGTPLYNRWAWDAGMSGLSGTTYNQGWRSWWLGSFNSSANNAQRVSGFSARSWLVDFATPPEPMPMTQVAARMMKFDFDIDPLKIWATSGQFTQSSMDWHGATSTDLAAFRDRGGKMILYHGMSDAAFSALDTADYYERLGAAMPGAAGFARLFLVPGMNHCSGGPGTDRFDMLTPLVAWVERGEAPDQISAWSGTPGYFGVAARTRPLCPYPQIARYKGSGDINTEANFACAAPP
B2: unnamed (protein)
chain: MAVMTPRRERSSLLSRALQVTAAAATALVTVSLAAPAHAANPYARGPNPTDALLEASSGPFSVSEENVSRLSASGFGGGIYYPRENNTYGAVAISPGYTGTEASIAWLGERIASHGFVVITIDTITTLDQPDSRAEQLNAALNHMINRASSTVRSRIDSSRLAVMGHSMGGGGTLRLASQRPDLKAAIPLTPWHLNKNWSSVTVPTLIIGADLDTIAPVATHAKPFYNSLPSSISKAYLELDGATHFAPNIPNKIIGKYSVAWLKRFVDNDTRYTQFLCPGPRDGLFGEVEYRSTCPF
B3: unnamed (protein)
chain: MNFPRASRLMQAAVLGGLMAVSAAATAQTNPYARGPNPTAASLEASAGPFTVRSFTVSRPSGYGAGTVYYPTNAGGTVGAIAIVPGYTARQSSIKWWGPRLASHGFVVITIDTNSTLDQPSSRSSQQMAALRQVASLNGTSSSPIYGVKTARMVMGWSMGGGGSLISAANNPSLKAAAPQAPWDSSTNFSSVTVPTLIFACENDSIAPVNSSALPIYDSMSRNAKQFLEINGGSHSCANSGNSNQALIGKKGVAWMKRFMDNDTRYSTFACENPNSTRVSDFRTANCS
B4: unnamed (protein)
chain: MDGVLWRVRTAALMAALLALAAWALWASPSVEAQSNPYQRGPNPTRSALTADGPFSVATYTVSRLSVSGFGGGVIYYPTGTSLTFGGIAMSPGYTADASSLAWLGRRLASHGFVVLVINTNSRFDYPDSRASQLSAALNYLRTSSPSAVRARLDNARLAVAGHSMGGGGTLRIAEQNPSLKAAVPLTPWHTDKTFNTSVPVLIVGAEADTVAPVSQHAIPFYQNLPSTTPKVYVELDNASHFAPNSNNAAISVYTISWMKLWVDNDTRYRQFLCNVNDPALSFDRTNNRHCQ

substrate: MHET; assay: not given; settings: pH 7; 30 °C; part of the chain shown

Row | Protein | Km [µM] | kcat [s⁻¹] | kcat/Km [M⁻¹ s⁻¹]
1 | B1 | 7.3 | 31 | 4.25e+06

substrate: BHET; assay: Proxy for plastic degradation [kcat] (s⁻¹); settings: pH 7

Row | Protein | Proxy for plastic degradation
2 | B2 | 0.03
3 | B3 | 0.8
4 | B4 | 0.1

substrate: hcPET; assay: Proxy for plastic degradation [Released monomer concentration (HPLC/LC-MS) (MHET+TPA)]; settings: pH 9

Row | Protein | Proxy for plastic degradation [mM]
5 | B2 | 0.001
6 | B3 | 0.01
7 | B4 | 0.001

substrate: PET; assay: Proxy for plastic degradation [Released monomer concentration (HPLC/LC-MS) (TPA+MHET+BHET)]; settings: pH 7

Row | Protein | Proxy for plastic degradation [mM]
8 | B2 | 0.003
9 | B3 | 0.32
10 | B4 | 0.05

same assay, conditions: pH 9; 20 °C

Row | Protein | Proxy for plastic degradation [mM]
11 | B2 | 0.0001
12 | B3 | 0.001
13 | B4 | 0.0005

same assay, conditions: pH 9; 30 °C

Row | Protein | Proxy for plastic degradation [mM]
14 | B2 | 0.0001
15 | B3 | 0.01
16 | B4 | 0.01

same assay, conditions: pH 9; 35 °C

Row | Protein | Proxy for plastic degradation [mM]
17 | B2 | 0.0001
18 | B3 | 0.02
19 | B4 | 0.01

same assay, conditions: pH 9; 40 °C

Row | Protein | Proxy for plastic degradation [mM]
20 | B2 | 0.001
21 | B3 | 0.03
22 | B4 | 0.15

same assay, conditions: pH 9; 50 °C

Row | Protein | Proxy for plastic degradation [mM]
23 | B2 | 0.009
24 | B3 | 0.005
25 | B4 | 1.2

same assay, conditions: pH 9; 60 °C

Row | Protein | Proxy for plastic degradation [mM]
26 | B2 | 0.015
27 | B3 | 0.0001
28 | B4 | 3.5

same assay, conditions: pH 9; 70 °C

Row | Protein | Proxy for plastic degradation [mM]
29 | B2 | 0.01
30 | B3 | 0.0001
31 | B4 | 2

same assay, conditions: pH 9; 80 °C

Row | Protein | Proxy for plastic degradation [mM]
32 | B2 | 0.001
33 | B3 | 0.0001

substrate: pNP-C2; pNP-C4; pNP-C6; pNP-C8; assay: Proxy for plastic degradation [kcat] (s⁻¹); settings: pH 7

Row | Protein | Proxy for plastic degradation
34 | B3 | 0.005

substrate: PET; assay: Proxy for plastic degradation [Released monomer concentration (HPLC/LC-MS) (TPA+MHET+BHET)]; settings: 0 h

Row | Protein | Proxy for plastic degradation [mM]
35 | B3 | 0
